Reference: article PMC7294595 (2020)
[ ]: non-standard residue; d: D form. CPP12 = cyclic cell-penetrating peptide fused at the N-terminus; pY = N[C@@H](Cc1ccc(OP(=O)(O)O)cc1)C(=O)O; βAla = NCCC(=O)O

Experiments:
[1] = molecular target: T1, ac-pTyr (gp130-derived phosphopeptide) (Homo sapiens); experiment: competition fluorescence polarization
T1 chain: Ac-G[pY]LPQTV-NH2

CPP12-pTyr = molecular target: T2, CPP12-pTyr (Homo sapiens, not fully specified); experiment: competition fluorescence polarization
T2 chain: {CPP12-βAla-βAla}-G[pY]LPQTV-NH2

IC50 [1]: 610 nM | IC50 (CPP12-pTyr): 410 nM
B1: STAT3 127-711 (protein)
chain: GQANHPTAAVVTEKQQMLEQHLQDVRKRVQDLEQKMKVVENLQDDFDFNYKTLKSQGDMQDLNGNNQSVTRQKMQQLEQMLTALDQMRRSIVSELAGLLSAMEYVQKTLTDEELADWKRRQQIACIGGPPNICLDRLENWITSLAESQLQTRQQIKKLEELQQKVSYKGDPIVQHRPMLEERIVELFRNLMKSAFVVERQPCMPMHPDRPLVIKTGVQFTTKVRLLVKFPELNYQLKIKVCIDKDSGDVAALRGSRKFNILGTNTKVMNMEESNNGSLSAEFKHLTLREQRCGNGGRANCDASLIVTEELHLITFETEVYHQGLKIDLETHSLPVVVISNICQMPNAWASILWYNMLTNNPKNVNFFTKPPIGTWDQVAEVLSWQFSSTTKRGLSIEQLTTLAEKLLGPGVNYSGCQITWAKFCKENMAGKGFSFWVWLDNIIDLVKKYILALWNEGYIMGFISKERERAILSTKPPGTFLLRFSESSKEGGVTFTWVEKDISGKTQIQSVEPYTKQQLNNMSFAEIIMGYKIMDATNILVSPLVYLYPDIPKEEAFGKYCRPESQEHPEADPGSAAPYLKTKFI
